According to patent US20240092854A1 (WASHINGTON UNIVERSITY, published 2024):

Biological target: T1, murine NKG2D on NK cells / splenocytes (mouse, UniProt O54709 1-232)
T1 construct: whole, on cells; also called NKG2D receptor
T1 sequence: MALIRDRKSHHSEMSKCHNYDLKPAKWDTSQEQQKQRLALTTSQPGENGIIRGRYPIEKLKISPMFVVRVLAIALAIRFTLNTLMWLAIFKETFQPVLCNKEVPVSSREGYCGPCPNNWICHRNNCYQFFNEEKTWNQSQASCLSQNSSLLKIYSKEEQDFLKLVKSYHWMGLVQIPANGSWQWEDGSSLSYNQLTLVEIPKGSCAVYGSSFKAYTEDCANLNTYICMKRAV
Assay: flow cytometry, fluorescently labeled construct on bulk splenocytes at 37° C.

B1: OMCP-mutIL-2 (R38A, F42K, C125S IL2-OMCP construct) (other)
chain: HKLAFNFNLEINGSDTHSTVDVYLDDSQIITFDGKDIRPTIPFMIGDEIFLPFYKNVFSEFFSLFRRVPTSTPYEDLTYFYECDYTDNKSTFDQFYLYNGEEYTVKTQEATNKNMWLTTSEFRLKKWFDGEDCIMHLRSLVRKMEDSKRNTGGTGSSGSSDYKDDDDKHHHHHHHHGSSGSSAPTSSSTKKTQLQLEHLLLDLQMILNGINNYKNPKLTAMLTKKFYMPKKATELKHLQCLEEELKPLEEVLNLAQSKNFHLRPRDLISNINVIVLELKGSETTFMCEYADETATIVEFLNRWITFSQSIISTLT
notes: also called OMCP-mutant IL-2; OMCP-IL2 construct
binding result: binds
